The values below are quoted from earlier work in PMC8246649 (Biochemistry, 2021).

Data set [1] has as its target UNC119A (Homo sapiens, UniProt Q13432). Particulars: read-out: Reported Kd of release factor to UNC119A.
Data set [2] deals with UNC119B (Homo sapiens, UniProt A6NIH7). Particulars: read-out: Reported Kd of release factor to UNC119B.
Sequence of UNC119B (A6NIH7 whole entry): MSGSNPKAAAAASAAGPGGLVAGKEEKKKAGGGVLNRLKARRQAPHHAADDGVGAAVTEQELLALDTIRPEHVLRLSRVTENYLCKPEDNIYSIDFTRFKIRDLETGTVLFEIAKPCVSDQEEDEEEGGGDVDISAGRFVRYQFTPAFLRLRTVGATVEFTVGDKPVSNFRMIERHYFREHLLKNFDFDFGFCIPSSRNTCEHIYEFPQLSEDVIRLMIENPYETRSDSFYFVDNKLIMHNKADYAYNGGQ

The term Kd denotes the free concentration of one partner at which half of the binding sites on the other are occupied at equilibrium, for simple one-to-one binding. For the substance “ARL2: ADP ribosylation factor-like protein 2, release factor of UNC119 cargo”, the Kd in data set [1] is 159 nM; in data set [2] it was 216 nM. Take “ARL3: ADP ribosylation factor-like protein 3, release factor of UNC119 cargo”: the Kd in data set [2] is 33 nM.
